The experiment concerns the target wild-type p53, endogenous (human (endogenous in SK-Hep1, HepG2), UniProt P04637 1-393). Nature of the experiment: cell-based or functional assay.

Chain of wild-type p53, endogenous (P04637 whole entry): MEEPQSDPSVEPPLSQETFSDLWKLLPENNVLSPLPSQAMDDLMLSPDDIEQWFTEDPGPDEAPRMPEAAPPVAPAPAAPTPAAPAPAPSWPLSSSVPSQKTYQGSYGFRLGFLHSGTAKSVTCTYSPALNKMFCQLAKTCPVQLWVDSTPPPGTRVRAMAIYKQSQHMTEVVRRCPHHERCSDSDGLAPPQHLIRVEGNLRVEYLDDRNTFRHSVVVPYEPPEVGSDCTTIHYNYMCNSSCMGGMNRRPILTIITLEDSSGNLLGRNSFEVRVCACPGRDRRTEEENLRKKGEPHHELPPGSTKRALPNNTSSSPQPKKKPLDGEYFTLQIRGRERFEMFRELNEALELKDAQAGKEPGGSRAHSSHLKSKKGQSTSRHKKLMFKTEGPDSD

B1: lysyl oxidase-like 4 (LOXL4), endogenous (natural protein, UniProt Q96JB6 25-756, looked up)
chain: QSLGTTKLRLVGPESKPEEGRLEVLHQGQWGTVCDDNFAIQEATVACRQLGFEAALTWAHSAKYGQGEGPIWLDNVRCVGTESSLDQCGSNGWGVSDCSHSEDVGVICHPRRHRGYLSETVSNALGPQGRRLEEVRLKPILASAKQHSPVTEGAVEVKYEGHWRQVCDQGWTMNNSRVVCGMLGFPSEVPVDSHYYRKVWDLKMRDPKSRLKSLTNKNSFWIHQVTCLGTEPHMANCQVQVAPARGKLRPACPGGMHAVVSCVAGPHFRPPKTKPQRKGSWAEEPRVRLRSGAQVGEGRVEVLMNRQWGTVCDHRWNLISASVVCRQLGFGSAREALFGARLGQGLGPIHLSEVRCRGYERTLSDCPALEGSQNGCQHENDAAVRCNVPNMGFQNQVRLAGGRIPEEGLLEVQVEVNGVPRWGSVCSENWGLTEAMVACRQLGLGFAIHAYKETWFWSGTPRAQEVVMSGVRCSGTELALQQCQRHGPVHCSHGGGRFLAGVSCMDSAPDLVMNAQLVQETAYLEDRPLSQLYCAHEENCLSKSADHMDWPYGYRRLLRFSTQIYNLGRTDFRPKTGRDSWVWHQCHRHYHSIEVFTHYDLLTLNGSKVAEGHKASFCLEDTNCPTGLQRRYACANFGEQGVTVGCWDTYRHDIDCQWVDITDVGPGNYIFQVIVNPHYEVAESDFSNNMLQCRCKYDGHRVWLHNCHTGNSYPANAELSLEQEQRLRNNLI
As to B1, the “expression of the p53 target genes PIG3 and BAX (quantitative real time PCR) after 5-aza-CR (5 μM, 16 h) in WT cells against 2DR cells” value is over 10 fold.

Source of the values: publication PMC6889417, “Derepression of LOXL4 inhibits liver cancer growth by reactivating compromised p53” (Cell Death and Differentiation, 2019).
